Entries after “also recorded” stand apart in the source; their conditions may differ.
Legend:
[1] = tested on: OTII (CD4+) T cells in unfractionated splenocytes; assay: Antigen presentation assay, unfractionated OTII splenocytes, [3H]thymidine T cell proliferation; format: cell-based, mouse
Description: FIG. 2B is a graph showing that oligosaccharide modification of OVA elicits stronger presentation to OTII T cells than unmodified OVA. Unfractionated OTII splenocytes (3×10^5/well) were incubated with graded doses of OVA or oligosaccharide-modified OVA for eighty-four hours with [^3H]thymidine (1 μCi) added for the last 12 hours. Thereafter [^3H]thymidine incorporation levels were measured and plotted. FIG. 2C is a graph showing that observed enhancements in antigen presentation of (OVA)-3-1 to T cells is carbohydrate dependent. Splenocytes were incubated with antigen as in (B)±(BSA)-3-1 (10 μg mL^−1). In cases where (OVA)-3-1 was added to OVA wells to assess the possibility of direct activation of T cells (see text), (OVA)-3-1 was present at 50 ng mL^−1; incubations were performed for seventy-two hours with [^3H]thymidine (1 μCi) added for the last 12 hours. FIG. 2D is a graph showing that the receptor mediated uptake of (OVA)-3-1 has a different binding profile than that observed for DC-SIGN. Unfractionated splenocytes were incubated with OVA or (OVA)-3-1±mBSA or Lewis^x-BSA (each at 100 μg mL^−1). Incubations were performed for seventy-two hours with [^3H]thymidine (1 μCi) added for the last twelve hours. All values reported are the mean of triplicate measurements.
The ability of these conjugates to enhance antigen uptake by dendritic cells was assessed in comparison to unmodified OVA by incubating graded doses of conjugate and OVA with unfractionated splenocytes (containing T cells, B cells, dendritic cells, macrophages) isolated from OTII (CD4^+) transgenic mice. The ability of dendritic cells to present antigenic peptides derived from targeted proteins was measured as a function of T cell proliferation in response to those presented peptides. T cell proliferation is quantified by [^3H]thymidine incorporation during cellular division.
Pooled inguinal lymph nodes were dissociated in 10% Fetal Bovine Serum RPMI (supplemented with 2 mM L-glutamine) and either mechanically dissociated between two glass slides or, to improve the overall cell yield, incubated in the presence of collagenase (Boehringer) and EDTA for 25 minutes at 37° C./5% CO2 to dissociate DC-T cell clusters. For antigen presentation assays with whole splenocytes, isolated spleens were injected with collagenase/EDTA, gently teased apart and incubated as described above. Splenocytes were cultured in 96-well round-bottom plates at a density of 3×10^5 cells/0.2 mL. In antigen presentation assays utilizing purified dendritic cells and T cells, dendritic cells were isolated from the spleens of C57BL/6 mice following collagenase/EDTA treatment by labeling the dendritic cells with commercially available magnetic microbeads linked to an anti-CD11c^+ antibody (Miltenyi Biotec, Bergisch Gladbach, Germany) (according to the Miltenyi Biotec protocol) and separating labeled Dendritic cells from non-dendritic cells by application of a magnetic field. Similarly, purified […] T cells were obtained from spleens of OTII transgenic mice using magnetic beads Dynal (Oslo, Norway). Purified dendritic cells and T cells were seeded onto 96-well plates round-bottom Plates at a 1:2 DC:T cell ratio unless stated otherwise in the Figures.

OTII T cells = assay: In vitro restimulation with OVA peptide of T cells from immunized, rechallenged mice; format: in vivo, mouse; conditions: OVA peptide 100 μg mL^−1, 24 h
Description: FIGS. 8A and 8B are a series of dot plots (FIG. 8A) and a graph (FIG. 8B) showing that the oligosaccharide-mediated targeting of steady state dendritic cells leads to T cell tolerance. […] 2×10^7 OTII splenocytes were adoptively transferred into B6.Ly5.2/Cr recipients and then immunized by subcutaneous injection with PBS, OVA (200 ng), (OVA)-3-1 (200 ng), (OVA)-3-1 (200 ng)+mBSA (50 μg) or OVA peptide (100 μg) in Incomplete Freund's Adjuvant. At 8 days after these initial immunizations, mice received an antigenic rechallenge of OVA peptide (100 μg) in Complete Freund's Adjuvant. On day ten mice were sacrificed and cells were isolated from the draining lymph node, total T cells were purified by negative selection and the number of OTII T cells were counted by FACS as described for FIG. 6. […]
For T cell proliferation assays in adoptive transfer experiments, inguinal lymph nodes from each experimental group (3 mice/group) were pooled and dissociated with collagenase/EDTA as described above. […] Response to OVA peptide was determined by subtracting background proliferation (no peptide) from specific, peptide-induced proliferation. […] The proliferation index was calculated as the ratio of the response to OVA peptide in an experimental group to the response to OVA peptide in the PBS group.

IL-4 = IL-4 ELISA during in vitro peptide restimulation of T cells from immunized mice; format: in vivo, mouse; conditions: 24 h; lower limit of detection approximately 0.3 ng mL^−1
Description: (§1) FIGS. 8A and 8B are a series of dot plots (FIG. 8A) and a graph (FIG. 8B) showing that the oligosaccharide-mediated targeting of steady state dendritic cells leads to T cell tolerance. […] 2×10^7 OTII splenocytes were adoptively transferred into B6.Ly5.2/Cr recipients and then immunized by subcutaneous injection with PBS, OVA (200 ng), (OVA)-3-1 (200 ng), (OVA)-3-1 (200 ng)+mBSA (50 μg) or OVA peptide (100 μg) in Incomplete Freund's Adjuvant. At 8 days after these initial immunizations, mice received an antigenic rechallenge of OVA peptide (100 μg) in Complete Freund's Adjuvant. On day ten mice were sacrificed and cells were isolated from the draining lymph node, total T cells were purified by negative selection and the number of OTII T cells were counted by FACS as described for FIG. 6. […] Purified T cells from each experimental group were seeded at 3×10^5 cells/well with purified […] dendritic cells (9×10^4/well) and were incubated for twenty-four hours±OVA peptide (100 μg mL^−1) with [^3H]thymidine (1 μCi) added for the last ten hours. […]
(§2) 75-150 μL aliquots of supernatant were sampled from antigen presentation assays at 24, 48, and 72 hours. […] 25 μL of each supernatant were diluted 1:1 with PBS/1% BSA and analyzed in triplicate for IFN-γ, IL-10, and IL-4 using DuoSet ELISA reagents from R&D Systems. […]

IFN-γ = IFN-γ ELISA during in vitro peptide restimulation of T cells from immunized mice; format: in vivo, mouse; conditions: 24 h; lower limit of detection approximately 0.3 ng mL^−1
Description: as §1, §2

mBSA: BSA modified with approximately 25 mannose residues per protein molecule [reference compound]
inhibition of uptake and presentation of (OVA)-3-1 to OTII T cells ([1]; OTII splenocytes, mBSA or Lewis^x-BSA each at 100 μg mL^−1): Neither mBSA nor Lewis^x-BSA significantly impair; also recorded: did not significantly effect presentation

B1: (OVA)-3-1: ovalbumin modified via SMCC with nonasaccharide 3-1, average of three saccharides per OVA (conjugate)
chain: GSIGAASMEFCFDVFKELKVHHANENIFYCPIAIMSALAMVYLGAKDSTRTQINKVVRFDKLPGFGDSIEAQCGTSVNVHSSLRDILNQITKPNDVYSFSLASRLYAEERYPILPEYLQCVKELYRGGLEPINFQTAADQARELINSWVESQTNGIIRNVLQPSSVDSQTAMVLVNAIVFKGLWEKAFKDEDTQAMPFRVTEQESKPVQMMYQIGLFRVASMASEKMKILELPFASGTMSMLVLLPDEVSGLEQLESIINFEKLTEWTSSNVMEERKIKVYLPRMKMEEKYNLTSVLMAMGITDVFSSSANLSGISSAESLKISQAVHAAHAEINEAGREVVGSAEAGVDAASVSEEFRADHPFLFCIKHIATNAVLFFGRCVSP
T cell response curve of OVA plus (OVA)-3-1 versus OVA alone (direct activation of T cells) ([1]; 0.05 μg mL^−1 (OVA)-3-1 added to graded doses of OVA): identical | enhancement of antigen uptake and presentation to T cells (T cell proliferation) compared to unmodified OVA ([1]; OTII splenocytes, graded doses): greatest enhancement | ability of T cells from immunized mice to respond to dendritic cell-presented OVA peptide in vitro (OTII T cells): significantly less responsive; also recorded: refractory to antigenic stimulation in vitro | IL-4 produced during peptide stimulation in vitro (IL-4): not detected | IFN-γ produced during peptide stimulation in vitro (IFN-γ): no detectable IFN-γ

B2: ovalbumin (protein, UniProt P01012 2-386, looked up)
Ovalbumin: B1 chain
notes: model antigen, unmodified
ability of T cells from immunized mice to respond to dendritic cell-presented OVA peptide in vitro (OTII T cells): strongly activated | IL-4 produced during peptide stimulation in vitro (IL-4): no IL-4 | IFN-γ produced during peptide stimulation in vitro (IFN-γ): produced IFN-γ

From patent US8273357B2, “Antigen-carbohydrate conjugates” (Massachusetts Institute of Technology, priority 2004, dated 2012)
